Source: PMC6662822, “Rational drug-design approach supported with thermodynamic studies — a peptide leader for the efficient bi-substrate inhibitor of protein kinase CK2” (Scientific Reports, 2019)
Where no end group is shown, it is not given here. 7‑COOH‑Br3Bt = not defined here

Molecular target: catalytic subunit of human protein kinase CK2 (human) (UniProt P68400)
Sequence (P68400 whole entry): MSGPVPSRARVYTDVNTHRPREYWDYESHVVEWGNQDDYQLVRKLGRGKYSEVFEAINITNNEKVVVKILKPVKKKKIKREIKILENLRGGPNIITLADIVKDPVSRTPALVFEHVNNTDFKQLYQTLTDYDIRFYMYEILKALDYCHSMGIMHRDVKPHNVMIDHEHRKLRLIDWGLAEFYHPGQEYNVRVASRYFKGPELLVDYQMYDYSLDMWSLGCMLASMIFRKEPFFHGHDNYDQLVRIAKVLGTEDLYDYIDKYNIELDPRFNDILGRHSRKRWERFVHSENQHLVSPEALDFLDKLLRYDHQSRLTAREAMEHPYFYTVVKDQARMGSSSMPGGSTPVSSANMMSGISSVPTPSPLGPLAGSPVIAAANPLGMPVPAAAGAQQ

IC50 of inhibition of hCK2α kinase activity (ADP-Glo assay; 10 μM substrate peptide …, 10 μM ATP, 30 °C): 670 nM
B1: bi-substrate inhibitor (KESEEE-NH2 conjugated with 7-COOH-Br3Bt) (peptide)
peptide: K(7‑COOH‑Br3Bt)ESEEE-NH2
modifications: reading uncertain
